# B1: Sec7ΔC+HDS1, Sec7 residues 203-1220, purified (domain or fragment, yeast, UniProt P11075 203-1220, looked up)
# chain: PRSTHTRNISLSSNGSNTNSTIILVKTTLETILNDKDIKKNSNAQKAIERTLQKFKEFDPQTTNNPHYVDSILVFEALRASCRTKSSKVQSLALDCLSKLFSFRSLDETLLVNPPDSLASNDQRQDAADGITPPPKQKIIDAAIDTISDCFQGEGTDDRVELQIVRALSSCILEEDSSSLCHGASLLKAIRTIYNVFVFSLNPSNQGIAQATLTQIISSVYDKIDLKQSTSSAVSLSTKNHQQQSAIELSEASENAETPAPLTLENMDKLNDDEERLMDAQQPDSIAITNQDLAVKDAFLVFRVMAKICAKPLETELDMRSHAVRSKLLSLHIIYSIIKDHIDVFLSHNIFLPGKERVCFIDSIRQYLRLVLSRNAASPLAPVFEVTLEIMWLLIANLRADFVKEIPVFLTEIYFPISELTTSTSQQKRYFLSVIQRICNDPRTLVEFYLNYDCNPGMPNVMEITVDYLTRLALTRVEITQTQRSYYDEQISKSLSTYNFSQLPLLTSSNLSSSPDVGQVNLLFPLDFALKMVSLNCIVSVLRSLSSWAHKALNPNTHTANKVLLNTTSSARQESRSSLSNDVRSSIMTSNDDFKPTYEDEESRSLSSQNIDADDPTQFENLKLRKTALSECIAIFNNKPKKAIPVLIKKGFLKDDSPISIAKWLLETEGLDMAAVGDYLGEGDDKNIAIMHAFVDEFDFTGMSIVDALRSFLQSFRLPGEGQKIDRFMLKFAERFVDQNPGVFSKADTAYVLSYSLIMLNTDLHSSQIKNKMSLQEFLENNEGIDNGRDLPRDFLEGLFNEIANNEIKLISEQHQAMLSGDTNLVQQQQSAFNFFNSRDLTREAYNQVSKEISSKTELVFKNLNKNKGGPDVYYAASHVEHVKSIFETLWMSFLAALTPPFKDYDDIDTTNKCLEGLKISIKIASTFRINDARTSFVGALVQFCNLQNLEEIKVKNVNAMVILLEVALSEGNYLEGSWKDILLVVSQMERLQLISKGIDRDTVPDVAQARVANPRVS
# B2: Sec7f, Sec7(203-2009) purified fragment (domain or fragment, yeast, UniProt P11075 203-2009, looked up)
# chain: PRSTHTRNISLSSNGSNTNSTIILVKTTLETILNDKDIKKNSNAQKAIERTLQKFKEFDPQTTNNPHYVDSILVFEALRASCRTKSSKVQSLALDCLSKLFSFRSLDETLLVNPPDSLASNDQRQDAADGITPPPKQKIIDAAIDTISDCFQGEGTDDRVELQIVRALSSCILEEDSSSLCHGASLLKAIRTIYNVFVFSLNPSNQGIAQATLTQIISSVYDKIDLKQSTSSAVSLSTKNHQQQSAIELSEASENAETPAPLTLENMDKLNDDEERLMDAQQPDSIAITNQDLAVKDAFLVFRVMAKICAKPLETELDMRSHAVRSKLLSLHIIYSIIKDHIDVFLSHNIFLPGKERVCFIDSIRQYLRLVLSRNAASPLAPVFEVTLEIMWLLIANLRADFVKEIPVFLTEIYFPISELTTSTSQQKRYFLSVIQRICNDPRTLVEFYLNYDCNPGMPNVMEITVDYLTRLALTRVEITQTQRSYYDEQISKSLSTYNFSQLPLLTSSNLSSSPDVGQVNLLFPLDFALKMVSLNCIVSVLRSLSSWAHKALNPNTHTANKVLLNTTSSARQESRSSLSNDVRSSIMTSNDDFKPTYEDEESRSLSSQNIDADDPTQFENLKLRKTALSECIAIFNNKPKKAIPVLIKKGFLKDDSPISIAKWLLETEGLDMAAVGDYLGEGDDKNIAIMHAFVDEFDFTGMSIVDALRSFLQSFRLPGEGQKIDRFMLKFAERFVDQNPGVFSKADTAYVLSYSLIMLNTDLHSSQIKNKMSLQEFLENNEGIDNGRDLPRDFLEGLFNEIANNEIKLISEQHQAMLSGDTNLVQQQQSAFNFFNSRDLTREAYNQVSKEISSKTELVFKNLNKNKGGPDVYYAASHVEHVKSIFETLWMSFLAALTPPFKDYDDIDTTNKCLEGLKISIKIASTFRINDARTSFVGALVQFCNLQNLEEIKVKNVNAMVILLEVALSEGNYLEGSWKDILLVVSQMERLQLISKGIDRDTVPDVAQARVANPRVSYESSRSNNTSFFDVWGKKATPTELAQEKHHNQTLSPEISKFISSSELVVLMDNIFTKSSELSGNAIVDFIKALTAVSLEEIESSENASTPRMFSLQKMVDVCYYNMDRIKLEWTPLWAVMGKAFNKIATNSNLAVVFFAIDSLRQLSMRFLDIEELSGFEFQHDFLKPFEYTVQNSGNTEVQEMIIECFRNFILTKSESIKSGWKPILESLQYTARSSTESIVLKTQLLVSNDIVTNHFENVFSQEDAFSELVGVFREITKNKRFQKLSLHALESLRKMTQNVADICFYNENKTEEERKHNDALLRGKDIFQDVWFPMLFCFNDTIMTAEDLEVRSRALNYMFDALVAYGGKFNDDFWEKICKKLLFPIFGVLSKHWEVNQFNSHDDLSVWLSTTLIQALRNLIALFTHYFESLNRMLDGFLGLLVSCICQENDTIARIGRSCLQQLILQNVSKFNEYHWNQIGDVFDKLFDLTTANELFDYDPLQQGRKSSVSHHQTTNDTSQHSDDDSNDRRENDSNISETVERAHQEESSEDVGGDMVETLNGQTKLNNGNSVPTVKDELNPKPASLSIPKKTKHMKRNESNEDIRRRINIKNSIVVKCVLQLLMIELLNELFENEDFAHCIPYKEAIRITRLLEKSYEFSRDFNEDYGLRTRLVEARVVDKIPNLLKQETSAAAVLLDIMFQLYLNDDEKKADLITRLITICIQVVEGYVSLDDRTMERSINAWRSVIVEILQGYYEFDDEDFRLYCPAMYALVIQILDKSVPTELRHAIKQFLSRVGELYLSTD
# Target: the molecule itself
# Assay: combined sedimentation/Stokes analysis
protein,measurement,value
B1,stoichiometry N,2
B2,stoichiometry N,2
